Laboratory results from the nanobody polyreactivity screen of Harvey et al. (2022).

Assay: yeast display, Sf9 membrane polyspecificity reagent, FACS + sequencing; frameworks hold sequencing errors
How it was run: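 In a synthetic yeast display library (Saccharomyces cerevisiae BJ5465), nanobody expression was induced with galactose for 36–48 hours. FACS gates were set low and high (top ~1%) using anti-HA fluorescence for expression and streptavidin fluorescence for binding of the Sf9 membrane reagent. Each polyreactivity label is drawn from the gate of origin.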

Sequence: QVQLVESVGGLVQAGGSLRLSCAASGRTFGRYAMGWYRQAPGKERELVAGISRSGDSTHYADSVKGRFTISRDNAKNTVSLQMNSLKPEDTAVYYCNKETPTIGARKYEYWGQGTQVTVSS
- polyreactivity (PSR sort gate): low polyreactivity

Sequence: QVQLVESVGGLVQAGGSLRLSCAASGRTFHGNAMRWYRQARGKERELVAAISYSGGRTYYADSVKGRFTISRDNAKNTVYLQMNSLKPEDTAVYYCAAWGSSYSFDYWGQGTQVTVSS
- polyreactivity (PSR sort gate): high polyreactivity

Sequence: QVQLVESVGGLVQAGGSLRLSCAASGRTFNYYARGWYRQAPGKERELVAAISWSGTPTYYADSVKGRFTISRDNAKNTVYLQMNSLKPEDTAVYYCAAYLVSYPRGNYIRYDYWGQGTQVTVSS
- polyreactivity (PSR sort gate): low polyreactivity

Sequence: QVQLVESVGGLVQAGGSLRLSCAASGRTFRKYAMGWYRQAQGKERELVASITYSGGSTYYADSVKGRFTISRDNAKNTVYLQMNSLKPEDTAVYYCAARLHWIRYPQTLYDYWGQGTQVTVSS
- polyreactivity (PSR sort gate): high polyreactivity

Sequence: QVQLVESVGGLVQAGGSLRLSCAASGRTFSKYAMGWYRQEPGQERELVAAITSRGSSTYYADSVKGRFTISRDNANNTVYLQMNSLKPEETAVYYCNAGGYSKRTGRYRSGSDYWGQGTHVTVSS
- polyreactivity (PSR sort gate): high polyreactivity

Sequence: QVQLVESVGGLVQAGGSLRLSCAASGRTFYFYAMGWYRQAPGKERELVAAITSGDTTHYADSVKGRFTISRDNAKNTVYLQMNSLKPDDTAVYYCAADKFKKISGYQRRSNYWGQGTQVTVSS
- polyreactivity (PSR sort gate): low polyreactivity

Sequence: QVQLVESVGGLVQAGGSLRLSCAASGRTFYHYAMGWYRQAPGKERELVAAITWSGGSTYYADSVKGRFTISRDNAKNTVYLQMNSLKPEDTAVYYCAAAYRPWRGGYYPVGYYYWGQGTQVTVSS
- polyreactivity (PSR sort gate): high polyreactivity

Sequence: QVQLVESVGGLVQAGGSLRLSCAASGRTFYRYAMGWYRPAPGKERELVAAITASGGSTYYADSVKGRFTISRDNAQNTVYLQMKSLKPEDTAVYYCAKGGKSRYSTWHGDYWGQGTQVTVSS
- polyreactivity (PSR sort gate): high polyreactivity

Sequence: QVQLVESVGGLVQAGGSLRLSCAASGRTIVTNAIGWYRQAPGKERELVAAISRRTGSTYYADSVKGRFTISRDNAKNTVYLQMNSLKPEDTAVYYCAAKGYGSAPTYRHNYWGQGTQVTVSS
- polyreactivity (PSR sort gate): high polyreactivity

Sequence: QVQLVESVGGLVQAGGSLRLSCAASGRTLFTNGMGWYRQAPGKESELVAAISTSGGSTHYADSVKGRFTISRDNAKNTVYLQMNSLKPEDTAVYYCAVDVLTVGQSYDHWGQGTQVTVSS
- polyreactivity (PSR sort gate): high polyreactivity

Sequence: QVQLVESVGGLVQAGGSLRLSCAASGSIFDSNAMGWYRQAPGKVRELVASITSSGGSTYYADSVKGRFTISRDNAKKTVYLQMNSLKPEDTAVYYCAAKQAQRRYRQWSTSGYWGQGTQVTVSS
- polyreactivity (PSR sort gate): high polyreactivity

Sequence: QVQLVESVGGLVQAGGSLRLSCAASGSIFDWNAMGWYREAPGKERELVASIDWDGGRTYYADSVKGRFTISRDNAKNTVYLQMNSLKPEDTAVYYCAATYYYDWWRGRWSPHIMDYWGQGTQVTVSS
- polyreactivity (PSR sort gate): low polyreactivity

Sequence: QVQLVESVGGLVQAGGSLRLSCAASGSIFEWSAMGWYRQAPGKERELVADISSVGSTYYADSVKGRFTISRDNAKNTVYLQMNSLKPEDTAVYYCAADGTWVRSPHFYYWGQGTQVTVSS
- polyreactivity (PSR sort gate): low polyreactivity

Sequence: QVQLVESVGGLVQAGGSLRLSCAASGSIFGRYVMGWYRQAPGKERELVAAITSGGTTNYADSVKGRFTISRDNAKHTVYLQMNSLKPEDTAVYSCNADYYSRIVGVRIYDYWGQGTQVTVSS
- polyreactivity (PSR sort gate): low polyreactivity

Sequence: QVQLVESVGGLVQAGGSLRLSCAASGSIFGSYAMGWYRQAPGKERELVAAITYSGTSTYYADSVKGRFTISRDNAKNTVYLQMNSLKPEDTAVYYCYAVSRHRSKFDYWGQGTQVTVSS
- polyreactivity (PSR sort gate): high polyreactivity

Sequence: QVQLVESVGGLVQAGGSLRLSCAASGSIFGVYAMGWYRQAPGKERELVATISRSGAITYYADSVKGRFTISRDNAKNTVYLQMNSLKPEDTAVYYCAADFFSREWGQGTQVTVSS
- polyreactivity (PSR sort gate): low polyreactivity

Sequence: QVQLVESVGGLVQAGGSLRLSCAASGSIFGYYAMGWYRPAPGKERELVATITWGGGSTYADSVKGRFTISRDNAKNTVYLQMNSLKPEDTAVYYCNAGYRYTSAQVTWEYDYWGQGTQVTVSS
- polyreactivity (PSR sort gate): low polyreactivity
